Assays:
MCF7/PRLR tumors = experiment: MCF7/PRLR breast tumor xenograft, tumor volume (Example 13); assay type: in vivo, NCr nude mice
Protocol: (§1) After MCF7 or MCF7/PRLR tumors reached an average volume of ˜150-200 mm^3 (14-16 days post implantation), mice were randomized into treatment groups (n=8-9 mice/group) and received a single dose or three once-weekly doses of H1H6958N2-DM1, control ADC, or vehicle control, administered systemically by intravenous tail-vein injection. Tumor size and body weight were measured in vivo twice per week throughout the duration of the study.
(§2) The T47Dv11 model was used to assess the activity of H1H6958N2-DM1 in a model with significant levels of endogenous PRLR. […] Initially, 10×10^6 parental T47D cells were implanted subcutaneously (SC) into the left flank of female C.B.-17 SCID mice (Taconic, Hudson N.Y.). Tumors were supplemented with a 90-day release 1.7 mg estrogen pellet (Innovative Research America). Where T47D tumors were observed, they were excised and cut into 3 mm fragments and subsequently implanted into the left flank of separate female C.B.-17 SCID mice. Subsequent passaging was performed until a large tumor was disaggregated into a single cell suspension. The cells (named T47Dv11) from this tumor were then cultured in vitro and expanded. […] For efficacy studies, mice were implanted with 7.5×10^6 T47Dv11 cells into the left flank of female C.B.-17 SCID mice supplemented with a 90-day release 0.72 mg/pellet estrogen pellet. For MCF7 and MCF7/PRLR tumor xenografts, 2×10^7 MCF7/PRLR cells were implanted SC into the left mammary fat pad of female NCr nude mice (7-8 weeks old) supplemented with 90-day release 0.72 mg/pellet estrogen pellets. Tumors were measured with calipers twice a week for the duration of each study. Tumor volume was calculated using the formula TV=(length×width^2)/2.

T47Dv11 tumors = experiment: T47Dv11 breast tumor xenograft, single agent and combination with fulvestrant; assay type: in vivo, C.B.-17 SCID mice
Protocol: as §2
as §1, with “T47Dv11” for “MCF7 or MCF7/PRLR”, “injection. […]” for “injection.”
Next, the combination of H1H6958N2-DM1 with the SERD fulvestrant was tested in the T47Dv11 xenograft model. Here, the activity of either agent at partially effective doses was compared against the activity of the agents in combination. First, a dose titration study of weekly administration of fulvestrant was performed in order to establish its single agent activity (FIG. 4).
For the subcutaneous tumors, average tumor size as well as tumor growth inhibition relative to the Vehicle treated group were calculated for each group. Tumors were measured with calipers twice a week until the average size of the vehicle group reached 1200 mm^3. Tumor size was calculated using the formula (length×width^2)/2. For all studies, tumor growth inhibition was calculated according to the following formula: (1−((Tfinal−Tinitial)/(Cfinal−Cinitial)))*100, where T (treated group) and C (control group) represent the mean tumor mass on the day the vehicle group reached 1000 mm^3.

[1] = tested on: human PRLR in HEK293/hPRLR/STAT5-Luc cells; experiment: STAT5-Luc reporter assay, blocking of PRL-mediated receptor activation (5 nM PRL); assay type: cell-based; conditions: read-out: IC50 of Blocking 5 nM PRL; 5 nM constant PRL, 6 hr at 37° C.
Source text: The ability of anti-PRLR antibodies to block prolactin (PRL)-mediated receptor activation was examined in a luciferase-based reporter assay. The endocrine hormone PRL binds to the extracellular domain of its cognate receptor PRLR, triggering rapid homodimerization and activating several downstream signaling cascades.
In this example, an engineered cell line was used to determine the ability of anti-PRLR antibodies to block ligand activation of the PRLR receptor. Briefly, HEK293/hPRLR/STAT5-Luc cell lines with stable incorporation of a human PRLR expression cassette and the STAT5-dependent luciferase reporter were generated via sequential rounds of Lipofectamine® 2000-mediated transfection (LifeTechnologies, Carlsbad, Calif.). Cells were selected for at least two weeks in the presence of 500 μg/mL G418 (hPRLR) and 100 μg/mL hygromycin B (STAT5-Luc). The STAT5-Luc assay utilized 2×10^5 HEK293/hPRLR/STAT5-Luc cells seeded in complete growth medium on PDL-coated 96 well plates grown overnight at 37° C., 5% CO2. To generate antibody inhibition curves, cells were incubated (6 hr at 37° C.) with serially diluted anti-human PRLR antibodies (100 nM to 24 pM) in the presence of 5 nM constant PRL before recording signal. PRL dose response curves were generated by the addition of serially diluted PRL (100 nM to 24 pM) to cells and recording signal after a 6 hr (37° C.) incubation in the absence of antibodies. The ability of the antibodies to activate PRLR in the absence of ligand was also assessed.
Luciferase activity was measured with ONE-Glo™ reagent (Promega, Madison, Wis.). Relative light units (RLUs) were measured on a Victor luminometer (Perkin Elmer, Shelton, Conn.). EC50/IC50 values were determined from a four-parameter logistic equation over an 8-point response curve using GraphPad Prism. Percent blocking and percent activation are reported for the highest antibody dose.

B1: H1H6958N2-DM1: anti-PRLR antibody H1H6958N2 conjugated to the maytansinoid DM1 through an SMCC linker (conjugate)
VH: QVQLVESGGGVVQPGRSLRLSCGASGFTFRNYGMQWVRQGPGKGLEWVTLISFDGNDKYYADSVKGRFTISRDNSKNTLFLQMNSLRTEDTAVYYCARGGDFDYWGQGTLVTVSS
VL: DIQMTQSPSSLSASVGDRVTITCRASQDIRKDLGWYQQKPGKAPKRLIYAASSLHSGVPSRFSGSGSGTEFTLTISSLQPEDFATYYCLQHNSYPMYTFGQGTKLEIK
antitumor efficacy (MCF7/PRLR tumors; single dose 10 and 15 mg/kg): eradication of the tumors
antitumor efficacy (MCF7/PRLR tumors; single dose at 2.5-15 mg/kg): significant antitumor efficacy observed at all doses
antitumor efficacy (MCF7/PRLR tumors; three once-weekly doses of 5 and 15 mg/kg): tumor eradication
Final Tumor Volume (mean ± SD) (T47Dv11 tumors; T47DvII tumors in SCID mice, Day 70, 2.5 mg/kg): 386 ± 249 mm^3
anti-tumor activity (T47Dv11 tumors; combination study, individual treatment 2.5 mg/kg single dose): Significant anti-tumor activity
tumor growth (T47Dv11 tumors; single dose 2.5 or 5 mg/kg): significantly inhibited tumor growth
tumor growth (T47Dv11 tumors; three doses of 5 or 15 mg/kg): tumor regression

B2: H1H6958N2: anti-PRLR antibody, receptor blocking, human IgG1 Fc form of H2M6958N2 of Table 1; HCVR/LCVR SEQ ID NOs 290/298 (antibody, V domains shown)
VH: QVQLVESGGGVVQPGRSLRLSCGASGFTFRNYGMQWVRQGPGKGLEWVTLISFDGNDKYYADSVKGRFTISRDNSKNTLFLQMNSLRTEDTAVYYCARGGDFDYWGQGTLVTVSS
VL: DIQMTQSPSSLSASVGDRVTITCRASQDIRKDLGWYQQKPGKAPKRLIYAASSLHSGVPSRFSGSGSGTEFTLTISSLQPEDFATYYCLQHNSYPMYTFGQGTKLEIK
antitumor efficacy of controls (MCF7/PRLR tumors; MCF7/PRLR model, dose not stated): failed to induce any inhibition of tumor growth
tumor growth, controls (T47Dv11 tumors; T47Dv11 model, dose not stated): no effect on tumor growth

B3: H1H6795P: fully human anti-PRLR antibody, human IgG1 Fc; HCVR/LCVR SEQ ID NOs 162/170 (antibody, V domains shown)
VH: QVQLVQSGAEVKKPGASVKVSCKASGYTFGTSGITWVRQAPGQGLEWMGWSSAYNGKTDYAQKFQDRVTMTTDTSTTTGYMEMRSLTSDDTAVYYCTTVVRRPFDFWGQGTLVTVSS
VL: DIQMTQSPSSLSASVGDRVTITCRASQDINNFLAWFQQKPGKAPKSLIYAASSLQSGVPSKFSGGGSGTDFALTISSLQPEDFATYYCQQYSSYPITFGQGTRLEIK
IC50 [1]: > 100 nM

B4: H1H6774P: fully human anti-PRLR antibody, human IgG1 Fc; HCVR/LCVR SEQ ID NOs 34/42 (antibody, V domains shown)
VH: EVQLVESGGGLAQPGGSLRLSCVASGFTFSTYWMSWVRQAPGKGLDWVGNIKQDGSEQNYVDSVRGRFTISRDNAKNSLFLQMNSLRAEDTGVYYCATLLTKGDYWGQGTLVTVSS
VL: DIQMTQSPSSLSASVGDSVTITCRASQDISNYLDWFQQKPGKAPKSLIYAASILQGGVPSRFSGSGYGTDFTLTISSLQPEDFATYYCRQYKTYPFTFGPGTKVDIK
IC50 [1]: > 100 nM

B5: H1H6797P: fully human anti-PRLR antibody, human IgG1 Fc; HCVR/LCVR SEQ ID NOs 178/186 (antibody, V domains shown)
VH: EVQLVESGGGLVQPGGSLRLSCIVSGFTFSGSWMSWVRQLPGKGLEWVANIKEDGSDSYYVDSVEGRFTISRDNAKSSLYLQMNSLRVDDTAVYFCARARTVPLHYWGQGTLVTVSS
VL: DIQMTQSPSTLSASVGDRVTITCRASQSINIWLAWYQQKPGKAPKLLIYRASYLESGVPSSFAGGGSGTEFTLTISSLQPDDFGTYYCQHYNSYPFTFGQGTKLEIK
IC50 [1]: > 100 nM
